Laboratory results taken from publication PMC3328451, “Mycobacterium tuberculosis Rv3586 (DacA) Is a Diadenylate Cyclase That Converts ATP or ADP into c-di-AMP” (PLoS ONE, 2012).

What was measured:
[1] = biological target: the molecule itself; test: cross-linking; 1.5 µM protein in 50 mM sodium phosphate pH 7.4, 20% glycerol, 5 mM MgCl2, with 35 mM glutaraldehyde for 1 h at room temperature; SDS-PAGE and Western blot with the anti-DacA antibody
[2] = biological target: the molecule itself; test: AUC; sedimentation velocity, 4°C, 10% glycerol in PBS; DacA and DacA_(1–287) at 40 000 rpm, DacA_(140–358) at 50 000 rpm; mass by the c(M) method in SEDFIT
SEC = biological target: the molecule itself; test: SEC

B1: DacA_(140–358) (domain or fragment)
chain: VLTDSATILSRANQAIATLERYKTRLDEVSRQLSRAEIEDFVTLRDVMTVVQRLELVRRIGLVIDYDVVELGTDGRQLRLQLDELLGGNDTARELIVRDYHANPEPPSTGQINATLDELDALSDGDLLDFTALAKVFGYPTTTEAQDSTLSPRGYRAMAGIPRLQFAHADLLVRAFGTLQGLLAASAGDLQSVDGIGAMWARHVREGLSQLAESTISDQ
notes: also called last 219 aa of DacA; DacA lacking the N-terminal Dac domain
stoichiometry N [1]: 2

B2: DacA_(1–287) (domain or fragment)
chain: MHAVTRPTLREAVARLAPGTGLRDGLERILRGRTGALIVLGHDENVEAICDGGFSLDVRYAATRLRELCKMDGAVVLSTDGSRIVRANVQLVPDPSIPTDESGTRHRSAERAAIQTGYPVISVSHSMNIVTVYVRGERHVLTDSATILSRANQAIATLERYKTRLDEVSRQLSRAEIEDFVTLRDVMTVVQRLELVRRIGLVIDYDVVELGTDGRQLRLQLDELLGGNDTARELIVRDYHANPEPPSTGQINATLDELDALSDGDLLDFTALAKVFGYPTTTEAQDS
notes: also called first 287 aa of DacA; DacA lacking the C-terminal HhH domain
stoichiometry N [2]: 4

B3: Mycobacterium tuberculosis Rv3586 (DacA) (enzyme)
chain: MHAVTRPTLREAVARLAPGTGLRDGLERILRGRTGALIVLGHDENVEAICDGGFSLDVRYAATRLRELCKMDGAVVLSTDGSRIVRANVQLVPDPSIPTDESGTRHRSAERAAIQTGYPVISVSHSMNIVTVYVRGERHVLTDSATILSRANQAIATLERYKTRLDEVSRQLSRAEIEDFVTLRDVMTVVQRLELVRRIGLVIDYDVVELGTDGRQLRLQLDELLGGNDTARELIVRDYHANPEPPSTGQINATLDELDALSDGDLLDFTALAKVFGYPTTTEAQDSTLSPRGYRAMAGIPRLQFAHADLLVRAFGTLQGLLAASAGDLQSVDGIGAMWARHVREGLSQLAESTISDQ
notes: also called native DacA; not shown: His tag, C-terminal, kept
stoichiometry N (SEC): 8
